Experimental data taken from article doi:10.1101/2020.05.01.072132, “Peroxisome counteracts oxidative stresses by suppressing catalase import via Pex14 phosphorylation” (bioRxiv, 2020).

Molecular target: Pex5L, a longer isoform of Pex5 (Chinese hamster, ClPex5L) (Chinese hamster, UniProt Q920N5 1-640)
Assay: pull-down; GST-Pex14 variants (2 μg) on glutathione-Sepharose beads incubated with EGFP-PTS1 (4 μg) or HA-catalase (4 μg) in the presence of Pex5L (2 μg) 2 h at 4°C; 50 mM Tris-HCl pH 7.5, 0.15 M NaCl, 1% Triton X-100, 10% glycerol; immunoblot
Settings: both partners purified

binding result: binds
B1: HA-catalase (human, HA-HsCatalase) (enzyme)
chain: MADSRDPASDQMQHWKEQRAAQKADVLTTGAGNPVGDKLNVITVGPRGPLLVQDVVFTDEMAHFDRERIPERVVHAKGAGAFGYFEVTHDITKYSKAKVFEHIGKKTPIAVRFSTVAGESGSADTVRDPRGFAVKFYTEDGNWDLVGNNTPIFFIRDPILFPSFIHSQKRNPQTHLKDPDMVWDFWSLRPESLHQVSFLFSDRGIPDGHRHMNGYGSHTFKLVNANGEAVYCKFHYKTDQGIKNLSVEDAARLSQEDPDYGIRDLFNAIATGKYPSWTFYIQVMTFNQAETFPFNPFDLTKVWPHKDYPLIPVGKLVLNRNPVNYFAEVEQIAFDPSNMPPGIEASPDKMLQGRLFAYPDTHRHRLGPNYLHIPVNCPYRARVANYQRDGPMCMQDNQGGAPNYYPNSFGAPEQQPSALEHSIQYSGEVRRFNTANDDNVTQVRAFYVNVLNEEQRKRLCENIAGHLKDAQIFIQKKAVKNFTEVHPDYGSHIQALLDKYNAEKPKNAIHTFVQSGSHLAAREKANL
notes: catalase, human (HsCatalase), amplified from pUcD3/HA-HsCatalase (Otera and Fujiki, 2012) and cloned into pGEX6P-1; source: E. coli DH5α, purified as GST fusion with glutathione-Sepharose beads, isolated by cleaving with PreScission protease
